This note sets out measurements from patent US20190338038A1 (CELLERANT THERAPEUTICS, published 2019).

Substitutions are numbered along the chain they refer to.

Assay [1] deals with T1, recombinant mouse IL1-RAP (mouse, UniProt Q61730 21-359, limits assumed).
T1 sequence (looked up): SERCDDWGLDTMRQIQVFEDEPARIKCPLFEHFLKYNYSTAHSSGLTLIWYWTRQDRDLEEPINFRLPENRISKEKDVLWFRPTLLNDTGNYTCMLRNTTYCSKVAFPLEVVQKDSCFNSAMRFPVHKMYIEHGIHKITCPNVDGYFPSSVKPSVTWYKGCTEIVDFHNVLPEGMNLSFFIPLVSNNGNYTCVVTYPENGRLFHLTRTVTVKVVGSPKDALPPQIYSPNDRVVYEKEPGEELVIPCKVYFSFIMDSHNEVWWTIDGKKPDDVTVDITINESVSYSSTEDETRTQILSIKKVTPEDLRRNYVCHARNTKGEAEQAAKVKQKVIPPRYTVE
The experiment in a line: FACS (GeoMean), bar series mIL1RAP.

Assay [2] concerns the target T2, human interleukin 1 receptor accessory protein, membrane-bound form on cells (human, UniProt Q9NPH3 21-570).
T2 sequence: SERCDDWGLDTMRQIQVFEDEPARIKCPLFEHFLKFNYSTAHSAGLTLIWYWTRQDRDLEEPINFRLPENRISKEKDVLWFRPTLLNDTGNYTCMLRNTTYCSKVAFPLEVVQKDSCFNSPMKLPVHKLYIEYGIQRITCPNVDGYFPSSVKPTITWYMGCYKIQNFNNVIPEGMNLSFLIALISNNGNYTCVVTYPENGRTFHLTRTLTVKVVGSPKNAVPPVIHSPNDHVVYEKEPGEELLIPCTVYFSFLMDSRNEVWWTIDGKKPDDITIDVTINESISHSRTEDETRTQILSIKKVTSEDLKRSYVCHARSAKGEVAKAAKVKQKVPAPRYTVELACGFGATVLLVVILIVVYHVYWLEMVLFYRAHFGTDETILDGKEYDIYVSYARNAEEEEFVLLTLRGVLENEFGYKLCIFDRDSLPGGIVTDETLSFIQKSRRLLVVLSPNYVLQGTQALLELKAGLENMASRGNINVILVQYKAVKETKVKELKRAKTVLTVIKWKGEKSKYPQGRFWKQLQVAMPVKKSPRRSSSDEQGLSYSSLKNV
The experiment in a line: cell-based or functional assay.

For assay [3], the target named is human interleukin 1 receptor accessory protein, membrane-bound form on cells (human) (UniProt Q9NPH3). The experiment in a line: FACS on EOL-1 cells, FITC; antibody concentration not given.
In assay [4] the target is T2, human interleukin 1 receptor accessory …. The assay is described as above.

B1: 46.8G1 (antibody, V domains shown)
VH: QVQLQQSGPELVKPGASVKISCTASGYAFSTSWMNWVKQRPGKGLEWIGRIYPGDGDSNYNGKFKGKATLTADKSSSTAYMQLSSLTSEDSAVYFCARRDYYGFFDVWGAGTTVTVSS
VL: DIQMTQSPASLSVSVGETVTITCRASENIYSNLVWYQQKQGKSPQLLVYAATNLADGVPSRFSGSGSDTQYSLKINSLQSEDFGSYYCLHFWGPPYMYTFGGGTNLEMKR
notes: also called anti-IL1-RAP antibody clone 46.8G1
In the case of B1, the binding result in assay [1] is reported as “no binding (tested: not given)”.

B2: anti-IL1-RAP antibody clone 42.1D3 (antibody, V domains shown)
VH: QIQLVQSGPELKKPGETVNISCKASGYTFTDFSMHWVKQAPGKGLQWMGWINTETGEPTYADDFEARFAFSLATSANTAYLKINNLKNEDTATYFCARFFLHFDYWGQGTTLTVSS
VL: DIVLTQSPATLSVTPGDSVSLSCRASQSINNDLHWYQQKSHESPRLLIKYASQSISGIPSRFSGSGSGTDFTLRINSVETEDFRMYFCQQSNNWPLTFGAGTKLEVK
notes: Mouse monoclonal antibody
For the molecule B2, the binding result in assay [1] is “no binding (tested: not given)”. In assay [2], the “% Inhibition at 10 ug/mL of IL-1β-induced NF-κB signaling, HEK-Blue IL-1β cells” value (from here on “% Inhibition at 10 ug/mL”) was found to be 59% and the “IC50 of inhibition of IL-1β-induced NF-κB signaling, HEK-Blue IL-1β cells” value (shortened to “IC50 of inhibition … HEK-Blue IL-1β cells”) stood at 7.99 µg/mL.

B3: anti-IL1-RAP antibody clone 50.3G7 (antibody, V domains shown)
VH: QIQLVQSGPELKKPGETVKISCKASGYTFTNYGMHWVKQSPGEGLKWMGWINTYTGEPTYADDFKGRFGFSLETSASSAYLQINDLKNEDMATYFCARYYGNFDYWGQGTTLTVSS
VL: DIVLTQSPATLSVTPGDSVSLSCRASQSISNNLHWYQQKSHESPRLLIKYASQSISGIPSRFSGSGSGTDFTLSINSVETEDFGVYFCQQSHNWPHTFGGGTKLEIKR
notes: Mouse monoclonal antibody
As to B3, the binding result in assay [1] is “no binding (tested: not given)”. In assay [2], the “% Inhibition at 10 ug/mL” value worked out at 48% and the “IC50 of inhibition … HEK-Blue IL-1β cells” value stood at 12.6 µg/mL.

B4: anti-IL1-RAP antibody clone 50.6C12 (antibody, V domains shown)
VH: EVQLQQSGPELVKPGDSVKMSCKASGYTFTDYYMDWVKQSHGKSLEWIGYIYPHNGGTTYNQKFKGKATLTVDKSSSTAYMELHSLTSEDSAVYYCARSPFNYKDPMDWWGQGTSVTVSS
VL: DIQMTQSPASLSASVGETVTITCRASGNIHNYLAWYQQKQGKSPHLLVYNAETLADGVPSRFSGSGSGTQYSLKINSLQPEDFGTYYCQHFWSTPWTFGGGTKLEIK
notes: Mouse monoclonal antibody
Regarding B4, the binding result in assay [1] is reported as “no binding (tested: not given)”. Also, in assay [2], the “% Inhibition at 10 ug/mL” value stood at 69% and the “IC50 of inhibition … HEK-Blue IL-1β cells” value was 0.41 µg/mL.

B5: anti-IL1-RAP antibody clone 54.8H8 (antibody, V domains shown)
VH: EVQLVESGGGLVKPGGSLKLSCAASGFSFSSYGMSWVRQSPEKRLEWVAEITSGGSHTYYPDTVTGRFTISRDNAKNTLYLEMSSLRSEDTAMYYCSRSYGNYVMDYWGQGTSVTVSS
VL: QIVLTQSPAIMSASPGEKVTMTCSASSSVIYIYWFQQKPGSSPRLLIYDTSNLASGVPLRFSGSGSGTSYSLTISRMETEDVSTYYCQQWNSYPPTFGGGTKLEIK
notes: Mouse monoclonal antibody
In the case of B5, in assay [1], the binding result is “no binding (tested: not given)”. For the same molecule, in assay [2], the “% Inhibition at 10 ug/mL” value stood at 50.8% and the “IC50 of inhibition … HEK-Blue IL-1β cells” value worked out at 2.05 µg/mL.

B6: 42.3G6 (antibody, V domains shown)
VH: QIQLVQSGPELKKPGETVKISCKASGYTFTDYSMHWVKQAPEKGLKWMGWINTETGEPTYADDFKGRFAFSLETSASTAYLQINNLKNEDTATYFCARGSFPWFTYWGQGTLVTVSA
VL: DIVMTQAAFSNPVTLGTSASISCRSSKSLLHSNGITYLYWYLQKPGQSPQLLIYQMSNLASGVPDRFSSSGSGTDFTLRISRVEAEDVGVYYCAQNLELPFTFGSGTKLEIK
notes: also called anti-IL1-RAP antibody clone 42.3G6
On to B6, for which the binding result in assay [1] is reported as “no binding (tested: not given)”.

B7: anti-IL1-RAP antibody clone 54.9E9 (antibody, V domains shown)
VH: QIQLVQSGPELKKPGETVKISCKASSYTFTDYSMHWVKQAPGKGLKWMGWINTETGEPRYADDFKGRFAFSLETSASTAYLQINNLKNEDTATYFCARFLLHFDYWGQGTILTVSS
VL: QIVLTQSPAIMSASPGEKVTMTCSASSSVSYMHWYQQKTGTSPKRLIYDTSKLASGVPARFSGSGSGTSYSLTISSMEAEDAATYYCHQRSYYPLTFGAGAKLELK
notes: Mouse monoclonal antibody
For B7, in assay [1], the binding result was “no binding (tested: not given)”. Besides, in assay [2], the “% Inhibition at 10 ug/mL” value came to 69.1% and the “IC50 of inhibition … HEK-Blue IL-1β cells” value was 1.3 µg/mL.

B8: H54.9D7 HC1 / H54.9D7 LC1 (antibody, V domains shown)
VH: QVQLVQSGAEVKKPGASVKVSCKASGYIFITYWMNWVRQAPGQGLEWMGQIFPASGTTYYAQKFQGRVTMTRDTSTSTVYMELSSLRSEDTAVYYCARTDFYRYDGGYALDYWGQGTLVTVSS
VL: DIQMTQSPSSLSASVGDRVTITCRASQSVSTSGYSSMHWYQQKPGKAPKLLIYYASDLESGVPSRFSGSGSGTDFTLTISSLQPEDFATYYCHHSWGIPMYTFGQGTKLEIKR
On to B8, for which, in assay [3], the MFI came to 4.9.

B9: Chi54.9D7 HC#1 / h54.9D7 LC2 (antibody, V domains shown)
VH: HVQLQQSGPELVRPGASVKLSCKASGYIFITYWMNWVKQRPGQGLEWVGQIFPASGTTYYNELFEGKATLTVDTSSNTAYMHLTSLTSEDSAVYYCARTDFYRYDGGYALDYWGQGTSLTVSS
VL: B8 VL with M4L, V19A, L82V
Molecule B9 registered an MFI in assay [3] of 7.8.

B10: h54.9D7 HC1 / h54.9D7 LC2 (antibody, V domains shown)
VH: B8 VH
VL: B8 VL with M4L, V19A, L82V
B10: the MFI in assay [3] was 5.14.

B11: h54.9D7 HC2 / h54.9D7 LC1 (antibody, V domains shown)
VH: B8 VH with M48V, R72V
VL: B8 VL
For the molecule B11, the MFI in assay [3] is 5.25.

B12: Chi54.9D7 HC#1 / h54.9D7 LC1 (antibody, V domains shown)
VH: B9 VH
VL: B8 VL
Consider B12, for which, in assay [3], the MFI is 7.96.

B13: H54.9D7 HC3 / H54.9D7 LC1 (antibody, V domains shown)
VH: B8 VH with V20L, M48V, V68A, M70L, R72V, V79A, V119L
VL: B8 VL
Turning to B13, the MFI in assay [3] is 4.86.

B14: h54.9D7 HC3 / h54.9D7 LC2 (antibody, V domains shown)
VH: B8 VH with V20L, M48V, V68A, M70L, R72V, V79A, V119L
VL: B8 VL with M4L, V19A, L82V
As to B14, in assay [3], the MFI turned out to be 5.49.

B15: h54.9D7 HC2 / Chi54.9D7 LC#1 (antibody, V domains shown)
VH: B8 VH with M48V, R72V
VL: DIVLTQSPISLAVFLGQRATISCRASQSVSTSGYSSMHWYQQKAGQPPKLLIKYASDLESGVPVRFSGSGSGTDFILNIHPVEVEDIATYYCHHSWGIPMYTFGGGTKLEIKR
notes: also called humanized 54.9D7 HC2 with the chimeric light chain
In assay [4], B15 came in with an MFI of 75.1.

B16: h54.9D7 HC2 / h54.9D7 LC2 (antibody, V domains shown)
VH: B8 VH with M48V, R72V
VL: B8 VL with M4L, V19A, L82V
As for B16, the MFI in assay [3] came to 5.69.

B17: h54.9D7 HC1 / Chi54.9D7 LC#1 (antibody, V domains shown)
VH: B8 VH
VL: B15 VL
notes: also called humanized 54.9D7 HC1 with the chimeric light chain
In assay [4], B17 yielded an MFI of 21.3.

B18: anti-IL1-RAP antibody clone 46.1D2 (antibody, V domains shown)
VH: QVQLQQSGPELVKPGASVKISCKASGYGFSSSWMNWVKQRPGKGLEWIGRIYPGDGNTNYYGEFKGKATLTADKSSSTAYMQLNSLTSEDSAVYFCARNDGYPAWFTYWGQGTLVTVSA
VL: DIQMTQTTSSLSASLGDRVTISCSASQGISNYLNWYQQKPDGSVKLLIYYTSTLHSGVPSRFSGSGSGTDYSLTISNLEPEDIATYYCQQYSYLPWTFGGGTKLEIK
notes: Mouse monoclonal antibody
For the molecule B18, the binding result in assay [1] is given as “no binding (tested: not given)”. Moreover, in assay [2], the “% Inhibition at 10 ug/mL” value was 69.2% and the “IC50 of inhibition … HEK-Blue IL-1β cells” value worked out at 0.13 µg/mL.

B19: anti-IL1-RAP antibody clone 54.15B5 (antibody, V domains shown)
VH: KWSWWSLGGGLAKPGGSLKLSCTASGFTFTSYVMSWVRQSPEKRLEWVAEISRGGSHTYYSDTVTGRFTISRDNANNALYLEMSSVRSADTAMYFCTRAYGNSEMDFWGQGTSVTVSS
VL: QIVLTQSPAIMSASPGEKVTMTCSASSSISYIHWYRQKPGTSPKRWIYDTSNLASGVPARFSGSGSGTSYSLTIINMEAEDAATYYCHQRTYYPLTFGGGTRLELK
notes: Mouse monoclonal antibody
On to B19, for which, in assay [1], the binding result is listed as “no binding (tested: not given)”. Further, in assay [2], the “% Inhibition at 10 ug/mL” value was 58.1% and the “IC50 of inhibition … HEK-Blue IL-1β cells” value is 0.29 µg/mL.

As usually defined, the % Inhibition is the relative decrease from the control value, in per cent. Read a low % Inhibition as a weak effect.
